# Reference: patent US12570994B2, “Plants having increased tolerance to herbicides” (BASF AGRO B.V., priority 2010, dated 2026)
# Experiments:
# [1] = system: Chlamydomonas reinhardtii; assay: Selection of mutagenized algae cells on solid medium with herbicide; conditions: solid medium containing 1×10^−7 M
# Protocol: Algae cells of Chlamydomonas reinhardtii strains CC-503 and CC-1691 (Duke University, Durham, USA) are propagated in TAP medium (Gorman and Levine (1965) PNAS 54:1665-1669) by constant shaking at 100 rpm, 22° C. and 30 μmol Phot*m^−2*s^−2 light illumination. […] Compound screening is performed at 450 μmol Phot*m^−2*s^−2 illumination.
# Sensitive strains of Chlamydomonas reinhardtii or Scenedesmus obliquus are mutated with 0.14 M ethylmethanesulfonate (EMS) for 1 h as described by Loppes (1969, 20 Mol Gen Genet 104:172-177) Tolerant strains are identified by screening of mutagenized cells on solid nutrient solution plates containing benzoxazinone-derivative herbicide of interest at low to lethal concentrations depending on compound activity in specific algae strain.
# (A) Mutagenized cells plated on solid medium without a selecting agent. (B) Mutagenized cells plated on solid medium containing 1×10^−7 M benzoxazinone-derivative I.a.35.
# [2] = target: wild type PPO enzyme (Amaranthus tuberculatus, UniProt Q0NZW9); assay: PPO enzyme assay (recombinant), wild type; assay type: biochemical; conditions: 150 μM Protogen
# [3] = Enzyme activity of recombinant wild type and substituted PPO enzymes; conditions: fluorescence unit change per minute
Molecule,growth of mutagenized Chlamydomonas reinhardtii cells (colony formation) [1],IC50 [2] [nM],Activity (FU/min) [3] [FU/min]
C#CCN1C(=O)C(F)(F)Oc2cc(F)c(-n3c(=O)n(C)c(=S)n(C)c3=O)cc21 [benzoxazinone 1.a.35],susceptible cells do not grow,0.12,
"F420M: amino acid substituted PPO enzyme F420M (protein, listed as Amaranthus tuberculatum) MVIQSITHLSPNLALPSPLSVSTKNYPVAVMGNISEREEPTSAKRVAVVGAGVSGLAAAYKLKSHGLSVTLFEADSRAGGKLKTVKKDGFIWDEGANTMTESEAEVSSLIDDLGLREKQQLPISQNKRYIARDGLPVLLPSNPAALLTSNILSAKSKLQIMLEPFLWRKHNATELSDEHVQESVGEFFERHFGKEFVDYVIDPFVAGTCGGDPQSLSMHHTFPEVWNIEKRFGSVFAGLIQSTLLSKKEKGGENASIKKPRVRGSFSFQGGMQTLVDTMCKQLGEDELKLQCEVLSLSYNQKGIPSLGNWSVSSMSNNTSEDQSYDAVVVTAPIRNVKEMKIMKFGNPFSLDFIPEVTYVPLSVMITAFKKDKVKRPLEGFGVLIPSKEQHNGLKTLGTLFSSMMFPDRAPSDMCLFTTMVGGSRNRKLANASTDELKQIVSSDLQQLLGTEDEPSFVNHLFWSNAFPLYGHNYDSVLRAIDKMEKDLPGFFYAGNHKGGLSVGKAMASGCKAAELVISYLDSHIYVKMDEKTA",,,353
"F420L: amino acid substituted PPO enzyme F420L (protein, listed as Amaranthus tuberculatum) MVIQSITHLSPNLALPSPLSVSTKNYPVAVMGNISEREEPTSAKRVAVVGAGVSGLAAAYKLKSHGLSVTLFEADSRAGGKLKTVKKDGFIWDEGANTMTESEAEVSSLIDDLGLREKQQLPISQNKRYIARDGLPVLLPSNPAALLTSNILSAKSKLQIMLEPFLWRKHNATELSDEHVQESVGEFFERHFGKEFVDYVIDPFVAGTCGGDPQSLSMHHTFPEVWNIEKRFGSVFAGLIQSTLLSKKEKGGENASIKKPRVRGSFSFQGGMQTLVDTMCKQLGEDELKLQCEVLSLSYNQKGIPSLGNWSVSSMSNNTSEDQSYDAVVVTAPIRNVKEMKIMKFGNPFSLDFIPEVTYVPLSVMITAFKKDKVKRPLEGFGVLIPSKEQHNGLKTLGTLFSSMMFPDRAPSDMCLFTTLVGGSRNRKLANASTDELKQIVSSDLQQLLGTEDEPSFVNHLFWSNAFPLYGHNYDSVLRAIDKMEKDLPGFFYAGNHKGGLSVGKAMASGCKAAELVISYLDSHIYVKMDEKTA",,,203
"R128A: amino acid substituted PPO enzyme R128A (protein, listed as Amaranthus tuberculatum) MVIQSITHLSPNLALPSPLSVSTKNYPVAVMGNISEREEPTSAKRVAVVGAGVSGLAAAYKLKSHGLSVTLFEADSRAGGKLKTVKKDGFIWDEGANTMTESEAEVSSLIDDLGLREKQQLPISQNKAYIARDGLPVLLPSNPAALLTSNILSAKSKLQIMLEPFLWRKHNATELSDEHVQESVGEFFERHFGKEFVDYVIDPFVAGTCGGDPQSLSMHHTFPEVWNIEKRFGSVFAGLIQSTLLSKKEKGGENASIKKPRVRGSFSFQGGMQTLVDTMCKQLGEDELKLQCEVLSLSYNQKGIPSLGNWSVSSMSNNTSEDQSYDAVVVTAPIRNVKEMKIMKFGNPFSLDFIPEVTYVPLSVMITAFKKDKVKRPLEGFGVLIPSKEQHNGLKTLGTLFSSMMFPDRAPSDMCLFTTFVGGSRNRKLANASTDELKQIVSSDLQQLLGTEDEPSFVNHLFWSNAFPLYGHNYDSVLRAIDKMEKDLPGFFYAGNHKGGLSVGKAMASGCKAAELVISYLDSHIYVKMDEKTA",,,731
